Results on 9 molecules are retold here after patent US20230357348A1 (AstraZeneca / MedImmune, published 2023).

Test [1] concerns the target human GLP-1 receptor (hGLP-1R) (human, UniProt P43220 24-463). Briefly: cell-based or functional assay.
For test [2], the target named is human glucagon receptor (hGCGR) (human, UniProt P47871 26-477). Briefly: cell-based or functional assay.

Starred links: 1 amine or outer side, 2 acyl side, 3 side chain; linkers in the order of their positions; H or OH if unused. Non-standard residues stand in square brackets, D forms with d. Groups on a side chain read outwards from the residue. No end group written: not given here. *: point of attachment. C20 diacid = O=C(O)CCCCCCCCCCCCCCCCCCC(=O)*; C18 diacid = O=C(O)CCCCCCCCCCCCCCCCC(=O)*; γGlu = O=C(O)[C@H](CCC(=O)[*:2])N[*:1]; αMeF = C[C@](N)(Cc1ccccc1)C(=O)O; AEEA = NCCOCCOCC(=O)O; Aib = CC(C)(N)C(=O)O

human glucagon receptor (hGCGR), sequence (P47871 26-477): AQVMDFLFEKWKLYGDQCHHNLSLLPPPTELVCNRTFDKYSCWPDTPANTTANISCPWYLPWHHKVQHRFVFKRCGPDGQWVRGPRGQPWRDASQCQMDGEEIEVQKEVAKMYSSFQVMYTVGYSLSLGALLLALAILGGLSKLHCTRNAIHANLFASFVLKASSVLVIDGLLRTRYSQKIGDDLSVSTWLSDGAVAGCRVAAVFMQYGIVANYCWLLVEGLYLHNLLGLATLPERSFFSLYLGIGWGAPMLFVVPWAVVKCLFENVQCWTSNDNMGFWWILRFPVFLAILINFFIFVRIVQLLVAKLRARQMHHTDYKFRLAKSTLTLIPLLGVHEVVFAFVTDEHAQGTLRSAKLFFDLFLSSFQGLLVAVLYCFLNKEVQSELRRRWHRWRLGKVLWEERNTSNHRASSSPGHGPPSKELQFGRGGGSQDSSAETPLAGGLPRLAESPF

B1: Peptide 441 (peptide)
peptide: H[Aib]QGTFTSDVSK[αMeF]LDKK([AEEA-AEEA-γGlu-C20 diacid])RAQDFVRWLL[Aib]E-NH2
modifications: N-terminus assumed
SMILES: CC(C)C[C@H](NC(=O)[C@H](Cc1c[nH]c2ccccc12)NC(=O)[C@H](CCCNC(=N)N)NC(=O)[C@@H](NC(=O)[C@H](Cc1ccccc1)NC(=O)[C@H](CC(=O)O)NC(=O)[C@H](CCC(N)=O)NC(=O)[C@H](C)NC(=O)[C@H](CCCNC(=N)N)NC(=O)[C@H](CCCCNC(=O)COCCOCCNC(=O)COCCOCCNC(=O)CC[C@H](NC(=O)CCCCCCCCCCCCCCCCCCC(=O)O)C(=O)O)NC(=O)[C@H](CCCCN)NC(=O)[C@H](CC(=O)O)NC(=O)[C@H](CC(C)C)NC(=O)[C@](C)(Cc1ccccc1)NC(=O)[C@H](CCCCN)NC(=O)[C@H](CO)NC(=O)[C@@H](NC(=O)[C@H](CC(=O)O)NC(=O)[C@H](CO)NC(=O)[C@@H](NC(=O)[C@H](Cc1ccccc1)NC(=O)[C@@H](NC(=O)CNC(=O)[C@H](CCC(N)=O)NC(=O)C(C)(C)NC(=O)[C@@H](N)Cc1c[nH]cn1)[C@@H](C)O)[C@@H](C)O)C(C)C)C(C)C)C(=O)N[C@@H](CC(C)C)C(=O)NC(C)(C)C(=O)N[C@@H](CCC(=O)O)C(N)=O
In the case of B1, the “hGLP-1R EC50 (pM)” value in test [1] was 62.7 pM. In addition, the “hGluc-R EC50 (pM)” value in test [2] was found to be 72.8 pM.
In the case of H[Aib]QGTFTSDVSK[αMeF]LETKRARDFVQWLLE[Aib]G-OH (not fully specified (residue 17)) [Peptide 444], in test [1], the “hGLP-1R EC50 (pM)” value is 247 pM. Moreover, in test [2], the “hGluc-R EC50 (pM)” value amounted to 1760 pM.

B2: Peptide 443 (peptide)
peptide: H[Aib]QGTFTSDVSK[αMeF]LDKK([AEEA-AEEA-γGlu-C18 diacid])RARDFVRWLL[Aib]E-NH2
modifications: N-terminus assumed
SMILES: CC(C)C[C@H](NC(=O)[C@H](Cc1c[nH]c2ccccc12)NC(=O)[C@H](CCCNC(=N)N)NC(=O)[C@@H](NC(=O)[C@H](Cc1ccccc1)NC(=O)[C@H](CC(=O)O)NC(=O)[C@H](CCCNC(=N)N)NC(=O)[C@H](C)NC(=O)[C@H](CCCNC(=N)N)NC(=O)[C@H](CCCCNC(=O)COCCOCCNC(=O)COCCOCCNC(=O)CC[C@H](NC(=O)CCCCCCCCCCCCCCCCC(=O)O)C(=O)O)NC(=O)[C@H](CCCCN)NC(=O)[C@H](CC(=O)O)NC(=O)[C@H](CC(C)C)NC(=O)[C@](C)(Cc1ccccc1)NC(=O)[C@H](CCCCN)NC(=O)[C@H](CO)NC(=O)[C@@H](NC(=O)[C@H](CC(=O)O)NC(=O)[C@H](CO)NC(=O)[C@@H](NC(=O)[C@H](Cc1ccccc1)NC(=O)[C@@H](NC(=O)CNC(=O)[C@H](CCC(N)=O)NC(=O)C(C)(C)NC(=O)[C@@H](N)Cc1c[nH]cn1)[C@@H](C)O)[C@@H](C)O)C(C)C)C(C)C)C(=O)N[C@@H](CC(C)C)C(=O)NC(C)(C)C(=O)N[C@@H](CCC(=O)O)C(N)=O
For the molecule B2, the “hGLP-1R EC50 (pM)” value in test [1] worked out at 20.6 pM. Also, in test [2], the “hGluc-R EC50 (pM)” value was 22.4 pM.

B3: Peptide 440 (peptide)
peptide: H[Aib]QGTFTSDVSK[αMeF]LDKK([AEEA-AEEA-γGlu-C20 diacid])RARDFVRWLL[Aib]E-OH
modifications: N-terminus assumed
SMILES: CC(C)C[C@H](NC(=O)[C@H](Cc1c[nH]c2ccccc12)NC(=O)[C@H](CCCNC(=N)N)NC(=O)[C@@H](NC(=O)[C@H](Cc1ccccc1)NC(=O)[C@H](CC(=O)O)NC(=O)[C@H](CCCNC(=N)N)NC(=O)[C@H](C)NC(=O)[C@H](CCCNC(=N)N)NC(=O)[C@H](CCCCNC(=O)COCCOCCNC(=O)COCCOCCNC(=O)CC[C@H](NC(=O)CCCCCCCCCCCCCCCCCCC(=O)O)C(=O)O)NC(=O)[C@H](CCCCN)NC(=O)[C@H](CC(=O)O)NC(=O)[C@H](CC(C)C)NC(=O)[C@](C)(Cc1ccccc1)NC(=O)[C@H](CCCCN)NC(=O)[C@H](CO)NC(=O)[C@@H](NC(=O)[C@H](CC(=O)O)NC(=O)[C@H](CO)NC(=O)[C@@H](NC(=O)[C@H](Cc1ccccc1)NC(=O)[C@@H](NC(=O)CNC(=O)[C@H](CCC(N)=O)NC(=O)C(C)(C)NC(=O)[C@@H](N)Cc1c[nH]cn1)[C@@H](C)O)[C@@H](C)O)C(C)C)C(C)C)C(=O)N[C@@H](CC(C)C)C(=O)NC(C)(C)C(=O)N[C@@H](CCC(=O)O)C(=O)O
As for B3, in test [1], the “hGLP-1R EC50 (pM)” value amounted to 154 pM. The “hGluc-R EC50 (pM)” value in test [2] came to 81 pM.

B4: Peptide 442 (peptide)
peptide: H[Aib]QGTFTSDVSK[αMeF]LDKK([AEEA-AEEA-γGlu-C18 diacid])RAQDFVRWLLE[Aib]G-NH2
modifications: N-terminus assumed
SMILES: CC(C)C[C@H](NC(=O)[C@H](Cc1c[nH]c2ccccc12)NC(=O)[C@H](CCCNC(=N)N)NC(=O)[C@@H](NC(=O)[C@H](Cc1ccccc1)NC(=O)[C@H](CC(=O)O)NC(=O)[C@H](CCC(N)=O)NC(=O)[C@H](C)NC(=O)[C@H](CCCNC(=N)N)NC(=O)[C@H](CCCCNC(=O)COCCOCCNC(=O)COCCOCCNC(=O)CC[C@H](NC(=O)CCCCCCCCCCCCCCCCC(=O)O)C(=O)O)NC(=O)[C@H](CCCCN)NC(=O)[C@H](CC(=O)O)NC(=O)[C@H](CC(C)C)NC(=O)[C@](C)(Cc1ccccc1)NC(=O)[C@H](CCCCN)NC(=O)[C@H](CO)NC(=O)[C@@H](NC(=O)[C@H](CC(=O)O)NC(=O)[C@H](CO)NC(=O)[C@@H](NC(=O)[C@H](Cc1ccccc1)NC(=O)[C@@H](NC(=O)CNC(=O)[C@H](CCC(N)=O)NC(=O)C(C)(C)NC(=O)[C@@H](N)Cc1c[nH]cn1)[C@@H](C)O)[C@@H](C)O)C(C)C)C(C)C)C(=O)N[C@@H](CC(C)C)C(=O)N[C@@H](CCC(=O)O)C(=O)NC(C)(C)C(=O)NCC(N)=O
As for B4, the “hGLP-1R EC50 (pM)” value in test [1] was 19.1 pM. Moreover, the “hGluc-R EC50 (pM)” value in test [2] came to 35.8 pM.

B5: Peptide 446 (peptide)
peptide: H[Aib]QGTFTSDVSK[αMeF]LDRK([AEEA-AEEA-γGlu-γGlu-C18 diacid])RAQDFVRWLV[Aib]E-NH2
modifications: N-terminus assumed
SMILES: CC(C)C[C@H](NC(=O)[C@H](Cc1c[nH]c2ccccc12)NC(=O)[C@H](CCCNC(=N)N)NC(=O)[C@@H](NC(=O)[C@H](Cc1ccccc1)NC(=O)[C@H](CC(=O)O)NC(=O)[C@H](CCC(N)=O)NC(=O)[C@H](C)NC(=O)[C@H](CCCNC(=N)N)NC(=O)[C@H](CCCCNC(=O)COCCOCCNC(=O)COCCOCCNC(=O)CC[C@H](NC(=O)CC[C@H](NC(=O)CCCCCCCCCCCCCCCCC(=O)O)C(=O)O)C(=O)O)NC(=O)[C@H](CCCNC(=N)N)NC(=O)[C@H](CC(=O)O)NC(=O)[C@H](CC(C)C)NC(=O)[C@](C)(Cc1ccccc1)NC(=O)[C@H](CCCCN)NC(=O)[C@H](CO)NC(=O)[C@@H](NC(=O)[C@H](CC(=O)O)NC(=O)[C@H](CO)NC(=O)[C@@H](NC(=O)[C@H](Cc1ccccc1)NC(=O)[C@@H](NC(=O)CNC(=O)[C@H](CCC(N)=O)NC(=O)C(C)(C)NC(=O)[C@@H](N)Cc1c[nH]cn1)[C@@H](C)O)[C@@H](C)O)C(C)C)C(C)C)C(=O)N[C@H](C(=O)NC(C)(C)C(=O)N[C@@H](CCC(=O)O)C(N)=O)C(C)C
On to B5, for which the “hGLP-1R EC50 (pM)” value in test [1] was found to be 32.9 pM. In addition, in test [2], the “hGluc-R EC50 (pM)” value is 366 pM.
As for H[Aib]QGTFTSDVSK[αMeF]LETK([AEEA-AEEA-γGlu-C18 diacid])RARDFVQWLLE[Aib]G-OH [Peptide 445], the “hGLP-1R EC50 (pM)” value in test [1] came to 33 pM. Besides, in test [2], the “hGluc-R EC50 (pM)” value was 684 pM.

B6: Peptide 447 (peptide)
peptide: H[Aib]QGTFTSDVSK[αMeF]LDRK([AEEA-AEEA-γGlu-γGlu-C20 diacid])RAQDFVRWLV[Aib]E-NH2
modifications: N-terminus assumed
SMILES: CC(C)C[C@H](NC(=O)[C@H](Cc1c[nH]c2ccccc12)NC(=O)[C@H](CCCNC(=N)N)NC(=O)[C@@H](NC(=O)[C@H](Cc1ccccc1)NC(=O)[C@H](CC(=O)O)NC(=O)[C@H](CCC(N)=O)NC(=O)[C@H](C)NC(=O)[C@H](CCCNC(=N)N)NC(=O)[C@H](CCCCNC(=O)COCCOCCNC(=O)COCCOCCNC(=O)CC[C@H](NC(=O)CC[C@H](NC(=O)CCCCCCCCCCCCCCCCCCC(=O)O)C(=O)O)C(=O)O)NC(=O)[C@H](CCCNC(=N)N)NC(=O)[C@H](CC(=O)O)NC(=O)[C@H](CC(C)C)NC(=O)[C@](C)(Cc1ccccc1)NC(=O)[C@H](CCCCN)NC(=O)[C@H](CO)NC(=O)[C@@H](NC(=O)[C@H](CC(=O)O)NC(=O)[C@H](CO)NC(=O)[C@@H](NC(=O)[C@H](Cc1ccccc1)NC(=O)[C@@H](NC(=O)CNC(=O)[C@H](CCC(N)=O)NC(=O)C(C)(C)NC(=O)[C@@H](N)Cc1c[nH]cn1)[C@@H](C)O)[C@@H](C)O)C(C)C)C(C)C)C(=O)N[C@H](C(=O)NC(C)(C)C(=O)N[C@@H](CCC(=O)O)C(N)=O)C(C)C
In the case of B6, the “hGLP-1R EC50 (pM)” value in test [1] was 170 pM. In test [2], the “hGluc-R EC50 (pM)” value was 667 pM.

B7: Peptide 448 (peptide)
peptide: H[Aib]QGTFTSDVSK[αMeF]LDKK([AEEA-AEEA-γGlu-γGlu-C18 diacid])RARDFVRWLL[Aib]E-OH
modifications: N-terminus assumed
SMILES: CC(C)C[C@H](NC(=O)[C@H](Cc1c[nH]c2ccccc12)NC(=O)[C@H](CCCNC(=N)N)NC(=O)[C@@H](NC(=O)[C@H](Cc1ccccc1)NC(=O)[C@H](CC(=O)O)NC(=O)[C@H](CCCNC(=N)N)NC(=O)[C@H](C)NC(=O)[C@H](CCCNC(=N)N)NC(=O)[C@H](CCCCNC(=O)COCCOCCNC(=O)COCCOCCNC(=O)CC[C@H](NC(=O)CC[C@H](NC(=O)CCCCCCCCCCCCCCCCC(=O)O)C(=O)O)C(=O)O)NC(=O)[C@H](CCCCN)NC(=O)[C@H](CC(=O)O)NC(=O)[C@H](CC(C)C)NC(=O)[C@](C)(Cc1ccccc1)NC(=O)[C@H](CCCCN)NC(=O)[C@H](CO)NC(=O)[C@@H](NC(=O)[C@H](CC(=O)O)NC(=O)[C@H](CO)NC(=O)[C@@H](NC(=O)[C@H](Cc1ccccc1)NC(=O)[C@@H](NC(=O)CNC(=O)[C@H](CCC(N)=O)NC(=O)C(C)(C)NC(=O)[C@@H](N)Cc1c[nH]cn1)[C@@H](C)O)[C@@H](C)O)C(C)C)C(C)C)C(=O)N[C@@H](CC(C)C)C(=O)NC(C)(C)C(=O)N[C@@H](CCC(=O)O)C(=O)O
On to B7, for which the “hGLP-1R EC50 (pM)” value in test [1] worked out at 53.1 pM. In addition, the “hGluc-R EC50 (pM)” value in test [2] came out at 29 pM.
